From paper PMC3766439 (Clinical cancer research : an official journal of the …, 2013) come the findings set out here.

This assay deals with Nus-Tag EGFRvIII ECD deletion mutant CT 292–346 (Homo sapiens, UniProt P00533). Briefly: ELISA.

B1: D2C7 monoclonal antibody (antibody, V domains shown)
VH: EVHLQQSGPELEKPGASVKISCKASGYSFTGYNMNWVKQSNGKSLEWIGNIDPYYGDTDYDQKFKGKATLTADKSSNTVYMQLQSLTSEDSAVYYCARGAHRDYYAMDYWGQGTSVTVSS
VL: DIQMTQSPASLSASVGETVTITCRTSENIYIYLAWYQQKQGKSPQLLVYNAKTLAEGVPSRFSGSGSGTQFSLKINGLQPEDFGGYYCQQHYGTPYTFGGGTKLEKK
B1: the binding result is “binds”.
